As usually defined, the Kd is the free concentration of one partner at which half of the binding sites on the other are occupied at equilibrium, for simple one-to-one binding.

The labels stand for the following.
B1: Aptdkk-16 (ssDNA)
DNA: CGTACGGTCGACGCTAGCTACACGCCATCGGTGCCCTTTTCTCTTCTTGTCTGGGATCCGAGCTCCACGTG
B2: Aptdkk-7 (ssDNA)
DNA: CGTACGGTCGACGCTAGCAGCCCCCTTCCTTTCTTCCTCGACCTCCCTCCGCAGGATCCGAGCTCCACGTG
B3: Aptdkk-11 (ssDNA)
DNA: CGTACGGTCGACGCTAGCCATCCAGCTCCCTTTATTCCCTCTGTACCCTCCTGGGATCCGAGCTCCACGTG
B4: Aptdkk-15 (ssDNA)
DNA: CGTACGGTCGACGCTAGCACGTTCAGATACCTTTTTTCCCCTTTGTTCTGCCGGGATCCGAGCTCCACGTG
B5: Aptdkk-4 (ssDNA)
DNA: CGTACGGTCGACGCTAGCTGCACGCTTTTCCCTCCTTTTCTCGTCTGACCGCGGGATCCGAGCTCCACGTG
B6: Aptdkk-10 (ssDNA)
DNA: CGTACGGTCGACGCTAGCACTCTCCACGTTTTTCCACCTCCTTCCTCCTTTGCGGATCCGAGCTCCACGTG
B7: Aptdkk-2 (ssDNA)
DNA: CGTACGGTCGACGCTAGCTGGTGTTGGGGTGGGTTGGTGGGTATTTTGGCGGTGGATCCGAGCTCCACGTG
B8: Aptdkk-14 (ssDNA)
DNA: CGTACGGTCGACGCTAGCCTGTGCAGTTGGTTGGTTATGGTTGGGACTGTCAGGATCCGAGCTCCACGTG
B9: Aptdkk-12 (ssDNA)
DNA: CGTACGGTCGACGCTAGCTCCCCTCATAATCCGACTTTTTCCCTCCCCCTCCCGGATCCGAGCTCCACGTG
B10: Aptdkk-9 (ssDNA)
DNA: CGTACGGTCGACGCTAGCTACACCCCTTCCTGTTCTATTCTTCCTGCCTTGCGGGATCCGAGCTCCACGTG
B11: Aptdkk-8 (ssDNA)
DNA: CGTACGGTCGACGCTAGCTGCCACCCCTGTTTTCCACATTTTCCTCGACCGCGGGATCCGAGCTCCACGTG
B12: Aptdkk-18 (ssDNA)
DNA: CGTACGGTCGACGCTAGCTCCACCCAATTCTCTTCCCGTCTTTCCTGCACATGGGATCCGAGCTCCACGTG
B13: Aptdkk-17 (ssDNA)
DNA: CGTACGGTCGACGCTAGCTACTTCTCCACGTCTCTTTCCCTGTCCCCTTCGCAGGATCCGAGCTCCACGTG
B14: Aptdkk-6 (ssDNA)
DNA: CGTACGGTCGACGCTAGCCCGGTTGCAATGGTTGGGGTGGTTGGTTTTGCATGGGATCCGAGCTCCACGTG
B15: Aptdkk-19 (ssDNA)
DNA: CGTACGGTCGACGCTAGCATAGGTTGGGTAGGTTGGTTGCTTTTTTTGTCGCGGGATCCGAGCTCCACGTG
B16: Aptdkk-13 (ssDNA)
DNA: CGTACGGTCGACGCTAGCTGGTGTGGGGGTGGGTGGTGGGTTGTATCGTTTGAGGATCCGAGCTCCACGTG
B17: Aptdkk-1 (ssDNA)
DNA: CGTACGGTCGACGCTAGCTGTGGTTATGGGGTTGGTGGGTGGGTTCTTACGGAGGATCCGAGCTCCACGTG

The target in one data set is T1, DKK1 (Dickkopf-1), full-length (Homo sapiens, UniProt O94907 SEQ:32-266).
T1 sequence: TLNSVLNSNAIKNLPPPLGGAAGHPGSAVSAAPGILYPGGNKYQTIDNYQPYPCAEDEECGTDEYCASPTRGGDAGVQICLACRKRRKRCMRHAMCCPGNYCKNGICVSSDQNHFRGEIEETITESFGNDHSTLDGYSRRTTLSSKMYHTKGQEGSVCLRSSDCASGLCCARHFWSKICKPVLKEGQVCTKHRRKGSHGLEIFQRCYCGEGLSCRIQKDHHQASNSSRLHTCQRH
Kind of data set: ELONA; specificity High at 1 uM; Kd not given. The following applies: tags: His6; label: biotin. On the procedure: (§1) Enzyme linked oligonucleotide assay (ELONA): 160 ng DKK1 per well and negative target were coated in a 96-well microtiter plate by incubating at 4° C. overnight through hydrophobic interaction. Non-binding sites in wells were blocked with bull serum albumin (BSA) at room temperature for 1 hour, and then washed with DNA-binding buffer 4 times for 5 minutes each. The biotinylated aptamer candidates/RS with an appropriate concentration were added to each well and incubated at room temperature for 45 minutes with continuous gentle shaking. After binding, the plate was washed with washing buffer 4 times for 5 minutes each to remove non-specific and weakly binding sequences. 100 μl streptavidin-horseradish peroxidase (HRP) (1:10000 dilute into PBST+0.1% BSA) was added to each well, and incubated for 30 minutes, and washed for 4 times with the binding buffer. 50 μl 3,3′,5,5′-tetramethylbenzidine (TMB) as a HRP substrate was added to each well and incubated for 20 minutes. 50 μl 2M H₂SO₄ was added to terminate the reaction. The absorbance at 450 nm was measured with a microplate reader (Molecular Device i3x). Data was analyzed with Origin software. A binding curve was generated and KD was calculated with a non-linear curve fitting model logistic.
The specificity of 1 μM of each adapter/RS against DKK-1 was determined for 20 potential sequences with the highest occurrence rate (Table 4) by ELONA and the absorbance at 450 nm was detected.
With B1, the binding result is “binds”. With B2, the binding result is listed as “binds”. The same measure, in the same setting: for B3 the value was “binds”.

B4: the binding result was “binds”. Same read-out and setting: for B5 the value was “binds”. Take B6: the binding result is recorded as “binds”.

Still in this data set, the particulars now being: tags: His6; label: biotin; G-rich, predicted G4.
In the case of B7, the binding result is reported as “binds”. Same read-out and setting: under B8 stands “binds”.

For the next data set, the target named is T1, DKK1 (Dickkopf-1), full-length. In words: ELONA; room temperature. The following applies: tags: His6; label: biotin. As for the experimental part: as §1
Aptamer candidates with significant specificity and Candidate 3 as a negative control were used to determine the binding affinity against DKK1. Candidates 1, 2, 4, and 14 had concentrations of (0, 62.5 nM, 125 nM, 250 nM, 500 nM, 1000 nM, 2000 nM, and 4000 nM), Candidates 7, 10, 15, and 16 had concentrations of (0, 23.44 nM, 46.86 nM, 93.75 nM, 187.5 nM, 375 nM, 750 nM, and 1500 nM), and other candidates had concentrations of (0, 0.18 nM, 0.74 nM, 2.96 nM, 11.84 nM, 47.35 nM, 189.39 nM, and 757.58 nM). […] Six candidates (aptdkk-5, 13, 20, 19, 6, and 1) were rich in G. The other five sequences (aptdkk-9, 18, 12, 17, and 8) were not rich in G.
Consider B9, for which the dissociation constant Kd worked out at 38.2 nM.

In turn, B10 came in with an equilibrium dissociation constant (Kd) of 4.2 nM. B11 registered a Kd of 104 nM. Molecule B12 registered an equilibrium dissociation constant (Kd) of 8.2 nM. The same measure, in the same setting: under B13 stands 50.4 nM.

Staying with this data set, now noted: tags: His6; label: biotin; G-rich, predicted G4.
As for B14, the Kd is 29.4 nM. As for B15, the Kd is 9.7 nM. The same measure, in the same setting: under B16 stands 1.1 nM. The same measure, in the same setting: under B17 stands 344 nM.

For another data set the target is unchanged. In words: BLI. The following applies: tags: His6. As for the experimental part:
The specificity against DKK-1 was determined with 1 μM of each aptamer/RS for 19 potential sequences with the highest occurrence rate in the 30th round by ELONA. […] Next, the binding affinity against DKK1 was determined for candidate aptamers by BLL. DKK1 protein was applied at gradient concentrations of 0 nM, 3.125 nM, 6.25 nM, 12.5 nM, 25 nM, 50 nM, 100 nM, and 200 nM.
CTGTTCTAACGTGGTTGACCCCCCTTTGCTTTGAC (ssDNA) [D30-9]: the Kd is 2.42 nM. CTTCTTGTCCCTCGATGTGTTCAGTGTTTGTGTGT (ssDNA) [D30-3] came in with a Kd of 2.64 nM. Still for that read-out and setting: under TCTGCTTTCACGTACTAGGTTGGTTAGGTTGGTGT (ssDNA) [D30-18] stands 20.8 nM. ATGCCCCTCCTCTGTTGAACTGTTTACCCCTTTGA (ssDNA) [D30-14] had a dissociation constant (Kd) of 2.54 nM.

CAGTCTTAGTGCTCATGTGTTCAGTGTTTGTGTGT (ssDNA) [D30-17] had a Kd of 20.1 nM. In turn, TCCTCTTCCTTTGGCTAGGTTGGTTAGGTTGGTGC (ssDNA) [D30-10] showed an equilibrium dissociation constant (Kd) of 1.97 nM. TCGTGCTTGATTCCATGCTTGGCCGCCTTCTCGTG (ssDNA) [D30-12] gave a Kd of 5.99 nM. The same measure, in the same setting: under AATTTCGATAGTCCATGTGTTCAGTGCCTGTGTGT (ssDNA) [D30-15] stands 2.92 nM. ATGTAAATCGATTCCTCTGGCCGCATCGCGCTTTA (ssDNA) [D30-16] showed a Kd of 1.9 nM. In turn, TGCATCTTCCTTCTTCGATTCTATGCTCGGCCGCG (ssDNA) [D30-8] registered a dissociation constant (Kd) of 3.19 nM. For the molecule CATTGTCTCAGCGCATGTGTTCAGTTCTTGTGTGT (ssDNA) [D30-2], the Kd was 2.89 nM. As for TACCTTCTGCTCGATGTGTTCAGTGTGTTGTGTGT (ssDNA) [D30-19], the equilibrium dissociation constant (Kd) was 20.1 nM. Regarding TGCTGAACTTTACGTGATTCTAGTCGCTGACCGCG (ssDNA) [D30-4], the dissociation constant Kd was 23 nM. Regarding ATGTCCATTTGCGAGTAGGTGTTTGAGTGAGGTGA (ssDNA) [D30-1], binding was characterised by a dissociation constant (Kd) of 5.34 nM. Still for that read-out and setting: for TGTAGATAGAGGGGTTGGTGTGGTTGGCGCTATCC (ssDNA) [D30-7] the value was 5.5 nM. TATGGTTTCCCTACATGTGTTCAGTGTTTGTGTGT (ssDNA) [D30-13] showed a dissociation constant Kd of 1.67 nM.
